Kd and koff data for two substances are collected here from article PMC9325241.

The target of assay [1] is recombinant PD-L1 (human PD-L1 protein) (human) (UniProt Q9NZQ7). As to the kind of experiment: SPR. The settings on record: bispecific antibody.
The target of assay [2] is recombinant EGFR (human EGFR protein) (human) (UniProt P00533). As to the kind of experiment: SPR. The settings on record: bispecific antibody.

UniProt Q9NZQ7, sequence (Q9NZQ7 19-238): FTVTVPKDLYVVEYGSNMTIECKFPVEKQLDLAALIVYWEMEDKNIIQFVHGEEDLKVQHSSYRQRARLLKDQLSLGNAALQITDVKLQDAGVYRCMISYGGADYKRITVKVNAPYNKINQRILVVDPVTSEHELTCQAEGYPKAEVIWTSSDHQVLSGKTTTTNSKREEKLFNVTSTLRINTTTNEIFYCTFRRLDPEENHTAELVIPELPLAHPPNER

In general, Kd refers to a measure of binding affinity in units of concentration. Broadly, the koff is a measure of how fast the partners let go of each other. For the substance “anti-EGFR/PD-L1 BsAb, dual variable domain immunoglobulin (DVD-Ig) symmetric tetravalent format (from UniProt P01857)”, in assay [1], the dissociation constant (Kd) worked out at 0.374 pM and the koff worked out at 7.56e-07 s⁻¹. Moreover, in assay [2], the Kd was 913 pM and the koff was 0.0007 s⁻¹.

On to “anti-EGFR/PD-L1 BsAb, knob-in-hole (KIH) asymmetric bivalent format (from UniProt P01857)”, for which the Kd came to 10.6 pM in assay [1] and 56300 pM in assay [2]. Further, the dissociation rate constant (koff) in assay [1] worked out at 2.13e-05 s⁻¹; in assay [2], 0.0295 s⁻¹.
